In US20190315847A1 (UNIVERSITY OF PITTSBURGH OF THE COMMONWEALTH SYSTEM OF …, published 2019):

Target: T1, insulin like growth factor 1 receptor (IGF1R) (human, UniProt P08069 31-736; P08069 741-1367)
T1 construct: Endogenous IGF1R in MCF-7 and T47D breast cancer cells; also called IGF1 receptor; IGFR1
Assay: in situ proximity ligation assay (Duolink), MCF-7 and T47D cells
Procedure: In situ proximity ligation assay (PLA) was used to analyze the direct interaction between IGF1R and E-cadherin in breast cancer cells. MCF-7 (FIG. 7A) and T47D (FIG. 7B) cells were plated on coverslips, fixed, and stained with IGF1R and E-cadherin antibody overnight. The Duolink (Sigma) protocol was followed and coverslips were imaged using confocal microscopy to reveal red puncta. MCF-7 cells transfected with anti-CDH1 siRNA (siCDH1; FIG. 7C) or anti-IGF1R siRNA (siIGF1R; FIG. 7D) were used as negative controls for the assay to assess primary antibody specificity. […] All puncta and nuclei in 60× images were counted. One-way ANOVA was used to determine significant difference between groups (p<0.05; one independent experiment, n=5 images per slide counted). Further, IGF1R (green; second column from left) and E-cadherin (red; third column from left) were analyzed for co-localization (merge; fourth column from left) by immunofluorescence staining in MCF-7 cells transfected with siSCR (FIG. 7J) or siCDH1 (FIG. 7K). […]
Cells were plated on coverslips and fixed in 4% paraformaldehyde for 30 minutes at 37° C. […] The ratio of puncta/nuclei for each experimental condition was calculated by counting all puncta and nuclei in five 60× images.

T1 sequence (P08069 31-736, chain 1 of 2): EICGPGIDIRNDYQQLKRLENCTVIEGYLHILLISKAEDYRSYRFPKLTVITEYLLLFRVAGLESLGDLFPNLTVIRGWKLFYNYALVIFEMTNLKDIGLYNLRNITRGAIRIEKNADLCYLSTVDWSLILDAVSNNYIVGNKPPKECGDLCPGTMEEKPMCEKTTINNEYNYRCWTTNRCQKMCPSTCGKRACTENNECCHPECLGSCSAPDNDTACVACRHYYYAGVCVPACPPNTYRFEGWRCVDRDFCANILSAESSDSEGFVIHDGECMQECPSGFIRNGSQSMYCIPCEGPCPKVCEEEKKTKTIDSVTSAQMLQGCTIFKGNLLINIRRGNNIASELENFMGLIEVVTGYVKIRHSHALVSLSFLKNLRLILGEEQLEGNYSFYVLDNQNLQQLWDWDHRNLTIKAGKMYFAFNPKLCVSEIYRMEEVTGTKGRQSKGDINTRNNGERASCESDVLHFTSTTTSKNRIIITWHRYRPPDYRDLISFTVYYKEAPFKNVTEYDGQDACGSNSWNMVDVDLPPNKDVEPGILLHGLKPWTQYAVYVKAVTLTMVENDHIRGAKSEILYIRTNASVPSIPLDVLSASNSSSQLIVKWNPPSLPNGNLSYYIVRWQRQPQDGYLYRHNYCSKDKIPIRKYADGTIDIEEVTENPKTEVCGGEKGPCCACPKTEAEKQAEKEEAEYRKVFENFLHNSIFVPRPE
T1 sequence (P08069 741-1367, chain 2 of 2): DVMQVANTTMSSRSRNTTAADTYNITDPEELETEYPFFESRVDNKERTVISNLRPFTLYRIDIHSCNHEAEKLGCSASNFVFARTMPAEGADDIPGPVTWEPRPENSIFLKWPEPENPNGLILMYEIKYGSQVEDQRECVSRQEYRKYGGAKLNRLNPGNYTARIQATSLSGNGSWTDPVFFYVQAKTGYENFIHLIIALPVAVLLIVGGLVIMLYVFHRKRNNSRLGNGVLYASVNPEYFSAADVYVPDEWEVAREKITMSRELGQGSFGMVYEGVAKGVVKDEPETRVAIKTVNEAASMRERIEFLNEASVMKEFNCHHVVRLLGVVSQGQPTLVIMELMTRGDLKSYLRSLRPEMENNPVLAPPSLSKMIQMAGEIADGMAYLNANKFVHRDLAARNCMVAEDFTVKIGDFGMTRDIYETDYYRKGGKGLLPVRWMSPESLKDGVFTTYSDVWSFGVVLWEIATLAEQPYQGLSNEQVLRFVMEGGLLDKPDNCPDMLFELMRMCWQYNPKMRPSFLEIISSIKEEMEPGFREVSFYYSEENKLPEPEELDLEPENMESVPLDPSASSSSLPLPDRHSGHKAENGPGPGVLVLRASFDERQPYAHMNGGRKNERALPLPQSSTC

B1: E-cadherin (CDH1) (other)
chain: DWVIPPISCPENEKGPFPKNLVQIKSNKDKEGKVFYSITGQGADTPPVGVFIIERETGWLKVTEPLDRERIATYTLFSHAVSSNGNAVEDPMEILITVTDQNDNKPEFTQEVFKGSVMEGALPGTSVMEVTATDADDDVNTYNAAIAYTILSQDPELPDKNMFTINRNTGVISVVTTGLDRESFPTYTLVVQAADLQGEGLSTTATAVITVTDTNDNPPIFNPTTYKGQVPENEANVVITTLKVTDADAPNTPAWEAVYTILNDDGGQFVVTTNPVNNDGILKTAKGLDFEAKQQYILHVAVTNVVPFEVSLTTSTATVTVDVLDVNEAPIFVPPEKRVEVSEDFGVGQEITSYTAQEPDTFMEQKITYRIWRDTANWLEINPDTGAISTRAELDREDFEHVKNSTYTALIIATDNGSPVATGTGTLLLILSDVNDNAPIPEPRTIFFCERNPKPQVINIIDADLPPNTSPFTAELTHGASANWTIQYNDPTQESIILKPKMALEVGDYKINLKLMDNQNKDQVTTLEVSVCDCEGAAGVCRKAQPVEAGLQIPAILGILGGILALLILILLLLLFLRRRAVVKEPLLPPEDDTRDNVYYYDEEGGGEEDQDFDLSQLHRGLDARPEVTRNDVAPTLMSVPRYLPRPANPDEIGNFIDENLKAADTDPTAPPYDSLLVFDYEGSGSEAASLSSLNSSESDKDQDYDYLNEWGNRFKKLADMYGGGEDD
notes: Endogenous E-cadherin in MCF-7 and T47D breast cancer cells; also called epithelial cadherin; CD324
Question: Does B1 bind?
Answer: binds
